Source: patent US20230212587A1, “Mutant Hydroxyphenylpyruvate Dioxygenase Polypeptide, Encoding Gene Thereof and Use Therefor” (Beijing Dabeinong Biotechnology Co., Ltd., priority 2019, published 2023)

B1: BdHPPDm-F372V: Brachypodium distachyon HPPD mutant F372V, SEQ ID NO: 355 (protein)
chain: MPPPATTAAPAAAAVTPEHARPPRRVARVNPRSDRFSALSFHHVELWCADAASAAGRFSFALGAPPAARSDLSTGNSAHASILLRSGSLAFLFTAPYAPSPASDSAASIPSFSASAARQFTADHGGLAVRAVALRVSSASDAFHASVSAGARPSFPPADLGQGFALAEVELYGDVVLRFISHPDENTEIPFLPGFESVSNPGASTYGLTRFDHVVGNVPSLAPVAAYIAGFTGFHEFAEFTAEDVGTADSGLNSVVLANNSERVLLPLNEPVHGTKRRSQIQTYLDHHGGPGVQHIALASDDVLRTLREMRARSAMGGFEFLAPPPPNYYDGVRRRAGDVLSEAQIKECQELGVLVDRDDQGVLLQIVTKPVGDRPTLFLEMIQRIGCMEKDEIGQEQQKGGCGGFGKGNFSELFRSIEEYEKSLEAKQSAVVQES
modifications: BdHPPDm-F372V Amino Acid Sequence
B2: TaHPPDm-F372G: Triticum aestivum HPPD mutant F372G, SEQ ID NO: 301 (protein)
chain: MPPTPTTPAATGAGAAAAVTPEHARPRRMVRFNPRSDRFHTLSFHHVEFWCADAASAAGRFAFALGAPLAARSDLSTGNSVHASQLLRSGNLAFLFTAPYANGCDAATASLPSFSADAARRFSADHGLAVRSIALRVADAAEAFRASVDGGARPAFSPVDLGRGFGFAEVELYGDVVLRFVSHPDGTDVPFLPGFEGVSNPGAVDYGLTRFDHVVGNVPELASAAAYVAGFTGFHEFAEFTTEDVGTAESGLNSMVLANNSEGVLLPLNEPVHGTKRRSQIQTFLEHHGGPGVQHIAVASSDVLRTLREMRARSAMGGFDFLPPPLPKYYEGVRRIAGDVLSEAQIKECQELGVLVDRDDQGVLLQIGTKPVGDRPTLFLEMIQRIGCMEKDERGEEYQKGGCGGFGKGNFSELFKSIEDYEKSLEAKQSAAVQGS
modifications: TaHPPDm-F372G Amino Acid Sequence
B3: GsHPPDm-F372G: Gossypium hirsutum HPPD mutant F372G, SEQ ID NO: 299 (protein)
chain: MVQTNQSGSGNDFKLVGFSNFVRSNPKSDRFTVKRFHHIEFWCTDATNVARRFSWGLGMQFVAKSDLSTGNLTHASYLLRSRDLNFLFTAPYSPSIAVAQNLSPQSTASIPSFDHSLCRSFAATHGLGVRAIAIEVDDAETAFTTSVTHGALPFCPPTPLGDVATIAEVKLYGDVVLRYVSYTTTINSDHDFLPGFEKIEDTLSYPLDYGLRRLDHAVGNVPELGPAVSYVKSFTGFHEFAEFTAEDVGTSESGLNSVVLANNEEMVLLPMNEPVFGTKRKSQIQTYLEHNEGAGVQHLALVSEDIFKTLREMRKRSFVGGFEFMPSPPPTYYKKLKQRAGDILSDEQIKECEELGILVDRDDQGTLLQIGTKPVGDRPTIFIEIIQRIGCMVKDEEGKQYQKGGCGGFGKGNFSELFKSIEEYEKSLEAKQSQNP
modifications: GsHPPDm-F372G Amino Acid Sequence
B4: N4HPPDm-F372G: Burkholderia sp. N4 HPPD mutant F372G, SEQ ID NO: 343 (protein)
chain: MQIPNWENPVGTDGFEFIEYTAPDPKALGQLFERMGFTAIARHRHKDVTVYRQGDINFIINAEPDSFAQRFARLHGPSICAIAFRVQDAAKAYQHALELGAWGFDNKTGPMELNIPAIKGIGDSLIYFVDRWRGKNGAQPGAIGDISIYDVDFEPIAGATPNPAGHGLTYIDHLTHNVHRGRMQEWAEFYERLFNFREVRYFDIEGKVTGVKSKAMTSPCGKIRIPINEEGSDTAGQIQEYLDAYHGEGIQHIALGTSDIYGAVDGLRGKEVKLLDTIDTYYELVDRRVPDHGESLDELKKRKILIDGARDDLLLQIGTENQIGPIFFEIIQRKGNQGFGEGTFKALFESIELDQIRRGVVQDKA
modifications: N4HPPDm-F372G Amino Acid Sequence

Tested on: Arabidopsis thaliana T1 plants
Assay: Topramezone tolerance of transgenic Arabidopsis thaliana T1 plants (pesticide damage grade by bleached leaf area, score, resistance evaluation)
Type: in vivo
Outline: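 Herbicide tolerance was judged per plant on a bleaching scale (grade 0 no bleaching to grade 3 fully bleached) 7 DAT. Topramezone doses were 0, 25, 50 and 100 g ai/ha on 18-day-old T1 and wild-type plants.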

[1] = topramezone 25 g ai/ha (1x), HPPD F372G mutants, Table 6
[2] = topramezone 100 g ai/ha (4x), HPPD F372G mutants, Table 6

Molecule | Resistance evaluation (topramezone 25 g ai/ha (1x), HPPD F372V mutants, Table 7) | Resistance evaluation (topramezone 100 g ai/ha (4x), HPPD F372V mutants, Table 7) | Resistance evaluation [1] | Resistance evaluation [2]
B1 | Highly resistant | Poorly resistant | – | –
B2 | – | – | Highly resistant | Moderately resistant
B3 | – | – | Moderately resistant | Non-resistant
B4 | – | – | Highly resistant | Highly resistant
